# Experimental data as given in article PMC3968367.
# Tests used:
# [1] = target: Shaker IR (Drosophila) (UniProt P08510)
# [2] = target: rKv1.2 (rat) (UniProt P63142)
# [3] = target: rKv1.3 (rat) (UniProt P15384)
# [4] = target: His28 (UniProt position 50, AFGRAHGKCMN); conditions: free toxin (inferred); cited from earlier work
# [5] = target: Shaker IR (Drosophila) (UniProt P08510); remark: listed apart in the source
# [6] = target: rKv1.1 (rat) (UniProt P10499)
# [7] = target: rKv1.2 (rat) (UniProt P63142); remark: listed apart in the source
# [8] = target: rKv1.3 (rat) (UniProt P15384); remark: listed apart in the source
# [9] = target: rKv1.6 (rat) (UniProt P17659)
# Chain of rKv1.6 (rat) (P17659 whole entry): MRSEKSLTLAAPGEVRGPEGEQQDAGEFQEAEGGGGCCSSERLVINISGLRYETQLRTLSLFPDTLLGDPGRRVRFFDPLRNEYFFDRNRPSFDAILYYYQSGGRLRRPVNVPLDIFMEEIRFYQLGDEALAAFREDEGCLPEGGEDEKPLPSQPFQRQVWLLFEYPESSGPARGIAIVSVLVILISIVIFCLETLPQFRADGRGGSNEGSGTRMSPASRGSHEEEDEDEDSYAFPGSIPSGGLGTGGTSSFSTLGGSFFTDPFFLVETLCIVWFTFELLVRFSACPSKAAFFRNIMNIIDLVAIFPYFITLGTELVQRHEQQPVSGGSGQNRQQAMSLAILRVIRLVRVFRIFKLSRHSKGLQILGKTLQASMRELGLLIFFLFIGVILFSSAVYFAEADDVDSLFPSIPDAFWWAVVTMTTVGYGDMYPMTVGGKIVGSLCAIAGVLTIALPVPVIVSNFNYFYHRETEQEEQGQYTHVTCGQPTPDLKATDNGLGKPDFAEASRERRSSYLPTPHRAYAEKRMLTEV
# Chain of rKv1.3 (rat) (P15384 whole entry): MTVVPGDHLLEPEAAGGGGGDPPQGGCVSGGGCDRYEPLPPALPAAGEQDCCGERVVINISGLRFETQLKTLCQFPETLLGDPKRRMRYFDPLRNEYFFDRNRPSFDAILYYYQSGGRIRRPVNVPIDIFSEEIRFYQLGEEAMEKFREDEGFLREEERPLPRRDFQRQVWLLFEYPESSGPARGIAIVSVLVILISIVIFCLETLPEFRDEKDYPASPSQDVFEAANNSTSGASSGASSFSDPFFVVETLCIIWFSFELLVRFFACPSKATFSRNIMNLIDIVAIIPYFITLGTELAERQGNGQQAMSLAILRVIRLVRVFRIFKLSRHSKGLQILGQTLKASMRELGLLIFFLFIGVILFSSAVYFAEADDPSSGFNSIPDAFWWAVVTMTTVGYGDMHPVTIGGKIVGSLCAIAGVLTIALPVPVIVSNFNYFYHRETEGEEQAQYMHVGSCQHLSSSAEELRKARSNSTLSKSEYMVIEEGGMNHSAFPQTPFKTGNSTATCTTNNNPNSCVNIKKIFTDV
# Chain of Shaker IR (Drosophila) (P08510 whole entry): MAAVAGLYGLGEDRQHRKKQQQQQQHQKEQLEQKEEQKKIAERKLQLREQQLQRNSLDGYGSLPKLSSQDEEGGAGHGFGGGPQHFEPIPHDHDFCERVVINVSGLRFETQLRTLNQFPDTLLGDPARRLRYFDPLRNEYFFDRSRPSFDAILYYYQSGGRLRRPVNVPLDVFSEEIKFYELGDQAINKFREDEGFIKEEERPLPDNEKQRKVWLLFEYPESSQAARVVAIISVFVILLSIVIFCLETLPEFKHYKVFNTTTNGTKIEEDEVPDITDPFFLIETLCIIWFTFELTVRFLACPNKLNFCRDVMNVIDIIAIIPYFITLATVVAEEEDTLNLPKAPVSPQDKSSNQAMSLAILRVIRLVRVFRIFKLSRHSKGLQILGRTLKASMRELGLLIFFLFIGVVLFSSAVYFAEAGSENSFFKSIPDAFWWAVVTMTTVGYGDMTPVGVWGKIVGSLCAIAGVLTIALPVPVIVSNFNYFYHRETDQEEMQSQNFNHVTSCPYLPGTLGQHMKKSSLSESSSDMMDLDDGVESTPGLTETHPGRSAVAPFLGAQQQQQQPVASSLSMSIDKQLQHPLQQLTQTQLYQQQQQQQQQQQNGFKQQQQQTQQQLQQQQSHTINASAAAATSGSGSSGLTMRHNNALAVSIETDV
# Chain of rKv1.2 (rat) (P63142 whole entry): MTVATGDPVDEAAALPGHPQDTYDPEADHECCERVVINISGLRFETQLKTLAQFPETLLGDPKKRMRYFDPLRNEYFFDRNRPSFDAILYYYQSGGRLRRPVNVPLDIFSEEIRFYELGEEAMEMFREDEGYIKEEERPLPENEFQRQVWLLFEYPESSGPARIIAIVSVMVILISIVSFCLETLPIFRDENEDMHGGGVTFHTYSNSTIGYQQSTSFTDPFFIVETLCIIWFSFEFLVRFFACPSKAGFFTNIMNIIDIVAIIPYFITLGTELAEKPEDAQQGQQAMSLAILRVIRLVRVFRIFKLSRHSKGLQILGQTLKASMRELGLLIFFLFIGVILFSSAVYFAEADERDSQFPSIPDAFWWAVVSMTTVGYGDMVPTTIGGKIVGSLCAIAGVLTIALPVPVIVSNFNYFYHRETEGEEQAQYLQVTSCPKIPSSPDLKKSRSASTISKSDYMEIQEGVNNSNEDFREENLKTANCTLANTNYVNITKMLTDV
# Chain of rKv1.1 (rat) (P10499 whole entry): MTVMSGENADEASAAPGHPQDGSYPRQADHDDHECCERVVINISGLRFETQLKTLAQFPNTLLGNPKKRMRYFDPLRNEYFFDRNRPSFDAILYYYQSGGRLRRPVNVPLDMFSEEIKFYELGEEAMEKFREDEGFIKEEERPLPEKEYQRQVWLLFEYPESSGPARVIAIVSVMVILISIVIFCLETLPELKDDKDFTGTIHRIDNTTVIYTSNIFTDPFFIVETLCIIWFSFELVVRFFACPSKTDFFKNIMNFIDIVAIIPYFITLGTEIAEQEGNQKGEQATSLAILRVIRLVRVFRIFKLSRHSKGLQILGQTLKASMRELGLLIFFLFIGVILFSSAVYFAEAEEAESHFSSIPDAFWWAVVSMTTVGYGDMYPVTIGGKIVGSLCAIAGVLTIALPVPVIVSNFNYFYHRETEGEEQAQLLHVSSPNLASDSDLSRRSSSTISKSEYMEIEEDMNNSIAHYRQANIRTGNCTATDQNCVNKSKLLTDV
substance,measurement,setting,value
Ts6 (from UniProt P59936 23-62) (peptide),"blocking effect on the K+ current at 1 µM Ts6, two-microelectrode voltage clamp on Xenopus oocytes",[1],79%
same,"blocking effect on the K+ current at 1 µM Ts6, two-microelectrode voltage clamp on Xenopus oocytes",[2],86%
same,"blocking effect on the K+ current at 1 µM Ts6, two-microelectrode voltage clamp on Xenopus oocytes",[3],98%
"Ts6 (alpha-KTx12.1, TsTX-IV, butantoxin) (Tityus serrulatus)",pKa,[4],5.2
Ts7 (from UniProt P46114 23-59) (peptide),"blocking effect on the K+ current at 1 µM Ts7, two-microelectrode voltage clamp on Xenopus oocytes",[5],97%
same,"blocking effect on the K+ current at 1 µM Ts7, two-microelectrode voltage clamp on Xenopus oocytes",[6],85%
same,"blocking effect on the K+ current at 1 µM Ts7, two-microelectrode voltage clamp on Xenopus oocytes",[7],91%
same,"blocking effect on the K+ current at 1 µM Ts7, two-microelectrode voltage clamp on Xenopus oocytes",[8],89%
same,"blocking effect on the K+ current at 1 µM Ts7, two-microelectrode voltage clamp on Xenopus oocytes",[9],94%
